Where two headings read alike, the source gives them in different places. Values belong to the substance of their own block, whether it stands above or below them.
How the values were obtained:
IgM (Homo sapiens) = IgM (Homo sapiens) (UniProt P01871); settings: cited from earlier work
[1] = target: IgM-Fc (Fcμ2-4) mutant M1 (K361D/D416R) (human); test: SEC-MALS; SEC-MALLS on Superdex 200 Increase 5/150 with in-line miniDAWN detector and refractometer; peaks of the homodimeric Fcμ2-4 proteins from SEC
[2] = target: IgM-Fc (Fcμ2-4) mutant M2 (Q510R) (human); test: as above
[3] = target: IgM-Fc (Fcμ2-4) mutant M3 (D340S/Q341G/D342S/T343S) (human); test: as above
[4] = target: IgM-Fc (Fcμ2-4) wild-type, dimer of Cμ2-Cμ3-Cμ4 domains (human); test: as above
[5] = target: Fcμ3-4, dimer of Cμ3-Cμ4 domains (human); test: SPR; Biacore T200, 25 °C, 0.01 M HEPES, 0.15 M NaCl, 0.005% Surfactant P20, pH 7.4; IgM, IgM-Fc, Fcμ3-4 or IgM-Fc mutants immobilised on CM5 by amine coupling; analyte sIgFcμR 0.25 μM to 12 μM; steady state, 1:1 binding model
[6] = target: IgM-Fc (Fcμ2-4) wild-type, dimer of Cμ2-Cμ3-Cμ4 domains (human); test: as above
[7] = target: purified serum IgM (whole pentameric IgM) (human); test: as above
[8] = target: IgM-Fc (Fcμ2-4) mutant M3 (D340S/Q341G/D342S/T343S) (human); test: as above
[9] = target: IgM-Fc (Fcμ2-4) wild-type, dimer of Cμ2-Cμ3-Cμ4 domains (human); test: as above; remark: listed apart in the source

Sequence of IgM (Homo sapiens) (P01871 whole entry): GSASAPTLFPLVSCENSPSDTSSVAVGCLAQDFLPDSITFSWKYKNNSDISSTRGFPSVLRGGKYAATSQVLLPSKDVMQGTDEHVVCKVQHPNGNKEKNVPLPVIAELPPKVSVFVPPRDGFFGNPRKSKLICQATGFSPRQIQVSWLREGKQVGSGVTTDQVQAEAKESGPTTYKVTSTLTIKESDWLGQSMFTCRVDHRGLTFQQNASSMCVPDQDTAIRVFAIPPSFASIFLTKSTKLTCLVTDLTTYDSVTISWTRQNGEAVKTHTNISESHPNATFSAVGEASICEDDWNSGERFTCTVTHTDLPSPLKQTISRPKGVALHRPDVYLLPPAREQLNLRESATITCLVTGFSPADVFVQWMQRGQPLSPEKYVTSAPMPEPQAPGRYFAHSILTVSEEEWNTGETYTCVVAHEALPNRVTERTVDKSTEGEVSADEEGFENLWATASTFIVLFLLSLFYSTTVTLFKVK
Sequence of Fcμ3-4, dimer of Cμ3-Cμ4 domains (human) (P01871 other isoform, or with tags, fused parts or gaps): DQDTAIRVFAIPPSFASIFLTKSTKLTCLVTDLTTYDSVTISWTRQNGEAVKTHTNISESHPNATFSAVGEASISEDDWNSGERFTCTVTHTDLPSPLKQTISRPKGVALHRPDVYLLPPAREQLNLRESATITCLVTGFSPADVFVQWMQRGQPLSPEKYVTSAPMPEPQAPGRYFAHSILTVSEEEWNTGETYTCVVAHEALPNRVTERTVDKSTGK
Sequence of FcμR (cell surface) (O60667 17-390): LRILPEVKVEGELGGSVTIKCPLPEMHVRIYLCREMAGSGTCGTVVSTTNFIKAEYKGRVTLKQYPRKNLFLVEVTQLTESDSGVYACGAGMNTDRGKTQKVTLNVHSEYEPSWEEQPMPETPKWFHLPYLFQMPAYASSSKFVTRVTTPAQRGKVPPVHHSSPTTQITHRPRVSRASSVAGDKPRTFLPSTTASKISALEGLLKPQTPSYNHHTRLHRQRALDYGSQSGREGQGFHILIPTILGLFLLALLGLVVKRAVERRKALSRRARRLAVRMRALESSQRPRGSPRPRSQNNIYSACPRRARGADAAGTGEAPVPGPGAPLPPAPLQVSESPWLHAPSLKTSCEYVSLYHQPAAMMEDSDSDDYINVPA

Substance: FcμR (cell surface) (from UniProt O60667)
Kd (IgM (Homo sapiens)): 10 nM

Substance: IgM-Fc (Fcμ2-4) mutant M2 (Q510R) (domain or fragment)
stoichiometry N [2]: 2

Substance: IgM-Fc (Fcμ2-4) wild-type, dimer of Cμ2-Cμ3-Cμ4 domains (domain or fragment)
stoichiometry N [4]: 2

Further lines, results first:

stoichiometry N [1]: 2
Substance: IgM-Fc (Fcμ2-4) mutant M1 (K361D/D416R) (domain or fragment)

stoichiometry N [3]: 2
Substance: IgM-Fc (Fcμ2-4) mutant M3 (D340S/Q341G/D342S/T343S) (domain or fragment)

stoichiometry N (sIgFcμR per IgM-Fc homodimer) [5]: 2
Kd [6]: 1150 nM
stoichiometry N (sIgFcμR per IgM-Fc homodimer) [6]: 2
Kd [7]: 2490 nM
stoichiometry N (sIgFcμR per IgM-Fc homodimer) [7]: 2
Kd [8]: 1450 nM
Kd [9]: 1830 nM
Substance: soluble extracellular immunoglobulin-like domain of FcμR (domain or fragment)
